Measured values from paper PMC9307851.

Biological target: DNMT3B MTase domain (residues 569-853), R670Q (human) (UniProt Q9UBC3)

DNMT3B MTase domain (residues 569-853), R670Q (from UniProt Q9UBC3-1 569-853) (domain or fragment)
in vitro DNA methylation efficiency of the DNMT3B-DNMT3B complex on CpG DNA, reduction against WT: 3 fold
